# Laboratory results published in the supplement of paper PMC10065799, “High-throughput profiling of sequence recognition by tyrosine kinases and SH2 domains using bacterial peptide display” (eLife, 2023).
# Legend:
# SHP2-C SH2 = experiment: SH2 binding enrichment of the phosphorylated peptide, bacterial display (enrichment ratio); higher = better substrate or ligand; peptides without Tyr show the background
# Grb2 SH2 = Grb2 SH2 (UniProt P62993); experiment: as above
# c-Src SH2 = experiment: as above
# c-Abl (mouse) = experiment: phosphorylation enrichment, bacterial display (enrichment ratio); higher = better substrate or ligand; peptides without Tyr show the background
# Hck = Hck (UniProt P08631); experiment: as above
# c-Src = experiment: as above
# AncSZ = experiment: as above
# EPHB1 = EPHB1 (UniProt P54762); experiment: as above
# Jak2 = Jak2 (UniProt O60674); experiment: as above
# Fes = Fes (UniProt P07332); experiment: as above
# Fer (mouse) = experiment: as above
# EPHB2 = EPHB2 (UniProt P29323); experiment: as above
# MERTK = MERTK (UniProt Q12866); experiment: as above
# Fyn = Fyn (UniProt P06241); experiment: as above
# FGFR1 = FGFR1 (UniProt P11362); experiment: as above
# FGFR3 = FGFR3 (UniProt P22607); experiment: as above
# 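For SH2 binding enrichment of the phosphorylated peptide, bacterial display in this document: peptide library displayed on the E. coli surface as eCPX fusions, selected cells deep-sequenced, score is each peptide's frequency after selection divided by its frequency in the input.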
# 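For phosphorylation enrichment, bacterial display in this document: 11-residue human phosphosite peptides and single-mutation variants displayed on the E. coli surface, counted by deep sequencing, each peptide's frequency after selection divided by its frequency in the unselected input library; frequency after pTyr selection over input frequency; kinase dosed for 20-30% of maximal phosphorylation in three min.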
# Chain of Fyn (P06241 whole entry, looked up): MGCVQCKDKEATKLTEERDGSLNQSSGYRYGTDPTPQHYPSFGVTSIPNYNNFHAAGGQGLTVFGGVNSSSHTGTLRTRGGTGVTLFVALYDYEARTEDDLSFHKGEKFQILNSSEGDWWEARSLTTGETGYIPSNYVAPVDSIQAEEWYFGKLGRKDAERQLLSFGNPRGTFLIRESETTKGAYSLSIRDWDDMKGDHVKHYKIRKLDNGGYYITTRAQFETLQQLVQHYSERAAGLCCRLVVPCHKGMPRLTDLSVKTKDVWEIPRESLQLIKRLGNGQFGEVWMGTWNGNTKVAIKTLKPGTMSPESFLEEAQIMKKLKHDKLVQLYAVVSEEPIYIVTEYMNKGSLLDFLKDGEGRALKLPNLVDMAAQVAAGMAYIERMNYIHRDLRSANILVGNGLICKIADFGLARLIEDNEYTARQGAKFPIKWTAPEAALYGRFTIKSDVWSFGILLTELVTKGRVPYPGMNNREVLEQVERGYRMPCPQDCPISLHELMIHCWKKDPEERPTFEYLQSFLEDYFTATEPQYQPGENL
# Chain of EPHB2 (P29323 whole entry, looked up): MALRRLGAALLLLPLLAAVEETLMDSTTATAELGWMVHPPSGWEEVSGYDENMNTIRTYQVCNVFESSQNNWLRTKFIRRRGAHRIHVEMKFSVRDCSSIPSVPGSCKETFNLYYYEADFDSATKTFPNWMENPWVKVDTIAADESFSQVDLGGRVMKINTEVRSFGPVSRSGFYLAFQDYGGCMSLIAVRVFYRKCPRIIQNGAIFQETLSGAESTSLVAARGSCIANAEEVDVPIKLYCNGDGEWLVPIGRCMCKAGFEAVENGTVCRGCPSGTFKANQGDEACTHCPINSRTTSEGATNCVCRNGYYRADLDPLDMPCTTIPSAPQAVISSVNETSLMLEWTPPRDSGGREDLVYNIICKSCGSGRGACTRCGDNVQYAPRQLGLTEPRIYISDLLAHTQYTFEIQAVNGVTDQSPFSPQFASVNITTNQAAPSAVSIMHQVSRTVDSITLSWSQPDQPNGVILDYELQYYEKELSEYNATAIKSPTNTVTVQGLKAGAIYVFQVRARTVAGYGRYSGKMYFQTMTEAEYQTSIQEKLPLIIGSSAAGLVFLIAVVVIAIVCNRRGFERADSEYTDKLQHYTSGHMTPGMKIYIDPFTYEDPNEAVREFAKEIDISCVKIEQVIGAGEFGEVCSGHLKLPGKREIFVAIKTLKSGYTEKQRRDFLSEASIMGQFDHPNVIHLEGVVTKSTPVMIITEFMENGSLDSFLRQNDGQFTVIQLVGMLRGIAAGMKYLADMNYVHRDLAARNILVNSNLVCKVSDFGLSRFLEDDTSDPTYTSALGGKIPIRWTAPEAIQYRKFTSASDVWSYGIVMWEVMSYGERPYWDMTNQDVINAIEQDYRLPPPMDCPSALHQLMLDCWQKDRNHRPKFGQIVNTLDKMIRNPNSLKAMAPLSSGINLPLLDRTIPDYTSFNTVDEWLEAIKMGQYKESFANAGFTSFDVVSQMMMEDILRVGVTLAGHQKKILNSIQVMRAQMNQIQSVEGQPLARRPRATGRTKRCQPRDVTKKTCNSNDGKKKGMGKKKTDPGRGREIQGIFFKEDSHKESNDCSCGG
# Chain of Fes (P07332 whole entry, looked up): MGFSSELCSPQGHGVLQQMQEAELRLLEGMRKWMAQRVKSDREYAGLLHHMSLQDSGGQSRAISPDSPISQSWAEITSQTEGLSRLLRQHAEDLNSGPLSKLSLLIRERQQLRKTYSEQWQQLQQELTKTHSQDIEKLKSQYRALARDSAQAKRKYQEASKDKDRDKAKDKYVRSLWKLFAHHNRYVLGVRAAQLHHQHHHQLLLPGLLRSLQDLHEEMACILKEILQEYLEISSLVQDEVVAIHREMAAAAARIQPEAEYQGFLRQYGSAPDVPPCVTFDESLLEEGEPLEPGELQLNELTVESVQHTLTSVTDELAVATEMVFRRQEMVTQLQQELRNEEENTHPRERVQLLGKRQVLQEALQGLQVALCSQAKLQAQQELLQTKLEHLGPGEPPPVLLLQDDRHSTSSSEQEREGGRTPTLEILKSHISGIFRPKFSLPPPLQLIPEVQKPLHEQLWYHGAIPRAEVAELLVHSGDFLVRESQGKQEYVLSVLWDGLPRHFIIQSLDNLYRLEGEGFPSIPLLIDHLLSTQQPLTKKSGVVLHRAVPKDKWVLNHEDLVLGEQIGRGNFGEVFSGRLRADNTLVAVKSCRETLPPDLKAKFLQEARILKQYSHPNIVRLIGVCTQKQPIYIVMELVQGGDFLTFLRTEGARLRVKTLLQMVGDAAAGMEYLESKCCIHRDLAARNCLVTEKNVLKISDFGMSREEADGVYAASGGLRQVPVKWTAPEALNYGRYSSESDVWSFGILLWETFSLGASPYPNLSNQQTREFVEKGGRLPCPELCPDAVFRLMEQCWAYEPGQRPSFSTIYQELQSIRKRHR
# Chain of EPHB1 (P54762 whole entry, looked up): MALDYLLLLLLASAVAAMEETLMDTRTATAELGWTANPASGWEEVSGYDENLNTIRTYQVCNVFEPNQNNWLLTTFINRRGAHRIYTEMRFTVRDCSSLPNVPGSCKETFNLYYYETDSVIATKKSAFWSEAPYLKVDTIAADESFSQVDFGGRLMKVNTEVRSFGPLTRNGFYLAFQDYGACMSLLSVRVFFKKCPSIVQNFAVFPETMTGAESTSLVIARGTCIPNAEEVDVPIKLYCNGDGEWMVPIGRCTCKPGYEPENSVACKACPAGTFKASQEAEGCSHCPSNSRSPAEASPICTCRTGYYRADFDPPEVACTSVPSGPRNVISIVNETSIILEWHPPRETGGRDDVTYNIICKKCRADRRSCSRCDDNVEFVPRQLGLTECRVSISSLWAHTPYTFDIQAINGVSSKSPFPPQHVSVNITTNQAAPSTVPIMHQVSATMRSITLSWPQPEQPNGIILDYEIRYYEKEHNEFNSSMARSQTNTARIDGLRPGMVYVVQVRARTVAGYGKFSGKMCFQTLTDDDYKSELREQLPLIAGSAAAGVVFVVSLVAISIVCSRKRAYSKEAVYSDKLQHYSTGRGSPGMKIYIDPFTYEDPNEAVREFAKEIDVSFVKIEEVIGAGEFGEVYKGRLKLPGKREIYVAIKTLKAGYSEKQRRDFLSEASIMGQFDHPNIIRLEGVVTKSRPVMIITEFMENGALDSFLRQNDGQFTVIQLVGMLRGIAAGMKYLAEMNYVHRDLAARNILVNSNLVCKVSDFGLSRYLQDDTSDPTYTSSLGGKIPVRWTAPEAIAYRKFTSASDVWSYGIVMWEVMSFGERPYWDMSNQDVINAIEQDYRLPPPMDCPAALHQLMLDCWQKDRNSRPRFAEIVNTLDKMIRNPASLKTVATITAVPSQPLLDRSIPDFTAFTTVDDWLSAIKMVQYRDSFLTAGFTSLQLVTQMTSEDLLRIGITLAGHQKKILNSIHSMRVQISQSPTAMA
# Chain of Jak2 (O60674 whole entry, looked up): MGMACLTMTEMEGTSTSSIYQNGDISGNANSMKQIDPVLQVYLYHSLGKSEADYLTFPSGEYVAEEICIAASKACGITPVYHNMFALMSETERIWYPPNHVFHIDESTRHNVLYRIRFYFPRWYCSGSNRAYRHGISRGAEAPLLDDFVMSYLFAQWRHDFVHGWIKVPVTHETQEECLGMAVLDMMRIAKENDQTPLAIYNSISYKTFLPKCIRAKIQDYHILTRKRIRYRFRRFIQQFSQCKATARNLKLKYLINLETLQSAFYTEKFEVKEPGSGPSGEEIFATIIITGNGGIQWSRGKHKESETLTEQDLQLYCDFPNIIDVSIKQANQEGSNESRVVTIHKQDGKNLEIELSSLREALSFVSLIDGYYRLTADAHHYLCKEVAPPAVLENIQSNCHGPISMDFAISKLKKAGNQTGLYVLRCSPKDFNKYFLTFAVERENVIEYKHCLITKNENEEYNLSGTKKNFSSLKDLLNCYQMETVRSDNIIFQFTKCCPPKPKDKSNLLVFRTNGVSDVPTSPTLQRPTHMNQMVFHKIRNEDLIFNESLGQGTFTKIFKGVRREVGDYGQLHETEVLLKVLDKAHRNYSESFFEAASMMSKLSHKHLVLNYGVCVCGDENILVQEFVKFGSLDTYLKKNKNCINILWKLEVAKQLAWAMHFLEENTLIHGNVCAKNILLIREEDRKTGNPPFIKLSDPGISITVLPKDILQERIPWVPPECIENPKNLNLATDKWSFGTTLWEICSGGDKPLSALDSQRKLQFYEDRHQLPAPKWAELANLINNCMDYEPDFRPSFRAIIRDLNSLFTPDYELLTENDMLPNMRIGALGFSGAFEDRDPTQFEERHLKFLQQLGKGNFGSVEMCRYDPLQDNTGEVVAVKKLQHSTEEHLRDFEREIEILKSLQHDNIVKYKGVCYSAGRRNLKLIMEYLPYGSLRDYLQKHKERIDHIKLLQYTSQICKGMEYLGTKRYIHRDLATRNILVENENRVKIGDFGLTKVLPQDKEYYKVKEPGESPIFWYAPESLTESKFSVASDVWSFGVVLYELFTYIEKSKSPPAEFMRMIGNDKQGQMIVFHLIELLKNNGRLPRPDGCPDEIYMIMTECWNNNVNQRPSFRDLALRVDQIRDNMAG
# Chain of Hck (P08631 whole entry, looked up): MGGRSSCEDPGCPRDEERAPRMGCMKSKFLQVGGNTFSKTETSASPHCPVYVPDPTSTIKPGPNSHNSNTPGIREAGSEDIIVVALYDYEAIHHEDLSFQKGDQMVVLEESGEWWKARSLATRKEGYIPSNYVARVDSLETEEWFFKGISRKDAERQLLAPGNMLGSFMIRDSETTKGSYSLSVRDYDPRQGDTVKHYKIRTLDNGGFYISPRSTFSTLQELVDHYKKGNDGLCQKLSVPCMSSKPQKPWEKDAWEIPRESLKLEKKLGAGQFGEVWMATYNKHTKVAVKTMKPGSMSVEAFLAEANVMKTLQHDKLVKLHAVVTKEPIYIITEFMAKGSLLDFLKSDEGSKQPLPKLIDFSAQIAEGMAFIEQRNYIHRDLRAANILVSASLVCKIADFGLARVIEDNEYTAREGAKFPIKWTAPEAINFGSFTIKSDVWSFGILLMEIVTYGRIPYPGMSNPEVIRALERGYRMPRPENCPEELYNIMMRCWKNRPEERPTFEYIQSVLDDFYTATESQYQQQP
SH2 binding enrichment (SHP2-C SH2),SH2 binding enrichment (Grb2 SH2),SH2 binding enrichment (c-Src SH2),Sequence,phosphorylation enrichment (c-Abl (mouse)),phosphorylation enrichment (Hck),phosphorylation enrichment (c-Src),phosphorylation enrichment (AncSZ),phosphorylation enrichment (EPHB1),phosphorylation enrichment (Jak2),phosphorylation enrichment (Fes),phosphorylation enrichment (Fer (mouse)),phosphorylation enrichment (EPHB2),phosphorylation enrichment (MERTK),phosphorylation enrichment (Fyn),phosphorylation enrichment (FGFR1),phosphorylation enrichment (FGFR3)
0.63,0.613,1.08,KSEFAYEIFDK [MYOM2_Y1024_L1022F],0.746,0.561,2.1,1.34,0.527,1.01,1.04,0.543,0.573,0.967,0.797,0.564,0.664
1.11,0.673,0.509,REENGYNTYAS [FGF10_Y161_I156R],1.25,1.3,0.9,1.22,0.856,1.27,1.73,0.559,0.962,0.568,1.21,0.761,1.03
0.639,1.06,0.512,WFKKFYDANFD [MAPRE2_Y158_YF],0.537,0.421,0.368,0.998,0.501,0.85,1.28,0.373,0.374,0.399,0.37,0.378,0.6
0.732,0.775,0.488,ISHVAYRVLGK [TRRAP_Y892],0.477,0.348,0.416,0.634,0.31,0.426,0.597,0.338,0.365,0.34,0.394,0.423,0.402
1.23,1.11,0.652,VVQGIYGYHHH [UFSP2_Y285_Y290H],5.2,10.7,9.1,0.67,0.857,0.555,0.758,13.8,2.92,10.3,11.2,0.541,0.488
0.897,0.994,4.04,HGEAYYSEVKA [PAK5_Y182_P187A],0.506,2.47,2.22,1.04,0.926,1.98,0.773,3.92,0.563,4.12,1.68,2.83,1.85
1.23,1.21,1.15,FRPPYYHRNCM [HGD_Y334],0.799,0.432,0.442,0.708,0.429,0.89,0.88,0.477,0.449,0.426,0.418,0.513,0.504
0.764,0.641,0.623,PVRIAYDRPRG [SUGP2_Y985],0.671,0.426,0.609,0.923,0.464,1.44,0.737,0.746,0.691,0.591,0.486,0.384,0.653
0.89,1.2,0.846,IWGKKYPTCNS [PTPRZ1_Y53_N48I],0.628,0.406,0.397,0.697,0.441,0.667,0.776,0.518,0.491,0.407,0.369,0.432,0.607
0.842,0.954,0.455,EVVGKYSVHNA [MLH1_Y183_R182K],0.527,0.388,0.438,0.612,0.363,0.569,0.697,0.426,0.363,0.374,0.428,0.352,0.449
0.618,0.684,0.444,WFISFYPQVIM [CTNS_Y143_S139F],0.758,0.446,0.359,1.22,0.541,1.13,1.53,0.451,0.637,0.315,0.413,0.485,0.838
1.21,1.09,0.846,RKKEEYKMALF [F8_Y1990_YF],0.72,0.465,0.555,0.759,0.734,0.691,0.708,0.494,0.738,0.391,0.31,0.4,0.607
0.699,1.26,0.608,QADVIYVNTQL [MERTK_Y872],1,2.19,1.27,1.61,2.52,1.18,1.43,8.63,0.962,0.925,2.13,2.29,1.4
0.501,0.599,1.23,RMGNLYDIDED [GRIN2A_Y1246],1.11,1.25,1.25,1.11,0.583,1.36,1.32,0.543,0.491,0.606,2.25,0.591,0.808
0.499,0.717,0.441,KPLMPSMRYSR [SMARCE1_Y73_Y73S],0.49,0.462,0.498,0.823,0.328,0.555,0.756,0.377,0.445,0.467,0.383,0.405,0.467
